From PMC5931518, “Architecture of the U6 snRNP reveals specific recognition of 3′-end processed U6 snRNA” come the findings set out here.

Assay [1] addresses T1, wild-type Prp24 for electrophoretic mobility shift assays (TEV-labile N-terminal polyhistidine tag removed) (S. cerevisiae, UniProt P49960 1-444).
T1 chain: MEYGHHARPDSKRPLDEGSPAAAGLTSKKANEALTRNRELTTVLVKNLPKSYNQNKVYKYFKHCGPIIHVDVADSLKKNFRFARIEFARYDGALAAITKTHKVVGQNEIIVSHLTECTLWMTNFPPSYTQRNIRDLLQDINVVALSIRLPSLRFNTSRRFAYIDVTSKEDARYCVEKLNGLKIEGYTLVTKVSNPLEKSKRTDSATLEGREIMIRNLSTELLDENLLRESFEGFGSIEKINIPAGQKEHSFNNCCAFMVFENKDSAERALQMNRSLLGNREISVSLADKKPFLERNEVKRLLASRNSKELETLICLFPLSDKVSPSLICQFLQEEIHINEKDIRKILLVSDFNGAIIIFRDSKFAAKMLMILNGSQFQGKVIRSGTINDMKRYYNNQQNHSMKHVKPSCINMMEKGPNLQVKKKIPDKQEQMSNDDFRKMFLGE
The assay can be described thus: EMSA; Prp24 pre-bound to U6 RNA (U6/Prp24 complex). (In general: Mobility shift assays separate free from complexed probe on a gel.)

The target in assay [2] is Prp24-8Asub (eight RRM4 residues at the Lsm2 interface substituted with alanine) (S. cerevisiae) (UniProt P49960). In words: native gel or EMSA; different amounts of Lsm2–8 added to 0.5 nM Cy3-U6 1–112 pre-incubated 20 min with 20 nM Prp24; 100 mM KCl, bis-tris pH ~6.5, room temperature; 6% native polyacrylamide gel at 4 °C; Hill fit, average of three technical replicates.

The target of assay [3] is T2, Prp24-8Asub (eight RRM4 residues at the Lsm2 interface substituted with alanine) (S. cerevisiae, UniProt P49960 1-444, D361A | S362A | K363A | K367A | L369A | M370A | I371A | N373A).
T2 sequence: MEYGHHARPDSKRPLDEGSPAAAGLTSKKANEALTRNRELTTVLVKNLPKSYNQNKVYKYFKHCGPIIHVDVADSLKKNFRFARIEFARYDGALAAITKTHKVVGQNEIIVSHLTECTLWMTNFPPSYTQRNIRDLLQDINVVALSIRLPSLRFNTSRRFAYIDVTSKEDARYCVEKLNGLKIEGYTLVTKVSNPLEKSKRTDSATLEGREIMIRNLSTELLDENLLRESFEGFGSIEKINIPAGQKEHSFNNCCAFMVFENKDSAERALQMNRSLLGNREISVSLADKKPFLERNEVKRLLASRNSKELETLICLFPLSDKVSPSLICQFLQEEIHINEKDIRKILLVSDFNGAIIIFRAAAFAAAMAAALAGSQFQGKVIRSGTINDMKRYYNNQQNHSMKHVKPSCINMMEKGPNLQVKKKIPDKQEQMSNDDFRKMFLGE
In words: EMSA; Prp24-8Asub pre-bound to U6 RNA (U6/Prp24 complex).

The target of assay [4] is Prp24-8Asub (eight RRM4 residues at the Lsm2 interface substituted with alanine) (S. cerevisiae) (UniProt P49960).

B1: Lsm2–8 heteroheptameric ring, "mostly wild type" construct (complex)
chain 1: MGSMLFFSFFKTLVDQEVVVELKNDIEIKGTLQSVDQFLNLKLDNISCTDEKKYPHLGSVRNIFIRGSTVRYVYLNKNMVDTNLLQDATRREVMTERK
chain 2: MGSMETPLDLLKLNLDERVYIKLRGARTLVGTLQAFDSHCNIVLSDAVETIYQLNNEELSESERRCEMVFIRGDTVTLISTPSEDDDGAVEI
chain 3: MGSMLPLYLLTNAKGQQMQIELKNGEIIQGILTNVDNWMNLTLSNVTEYSEESAINSEDNAESSKAVKLNEIYIRGTFIKFIKLQDNIIDKVKQQI
chain 4: MGSMSLPEILPLEVIDKTINQKVLIVLQSNREFEGTLVGFDDFVNVILEDAVEWLIDPEDESRNEKVMQHHGRMLLSGNNIAILVPGGKKTPTEAL
chain 5: GSMSGKASTEGSVTTEFLSDIIGKTVNVKLASGLLYSGRLESIDGFMNVALSSATEHYESNNNKLLNKFNSDVFLRGTQVMYISEQKI
chain 6: MGSMHQQHSKSENKPQQQRKKFEGPKREAILDLAKYKDSKIRVKLMGGKLVIGVLKGYDQLMNLVLDDTVEYMSNPDDENNTELISKNARKLGLTVIRGTILVSLSSAEGSDVLYMQK
chain 7: GSMSATLKDYLNKRVVIIKVDGECLIASLNGFDKNTNLFITNVFNRISKEFICKAQLLRGSEIALVGLIDAENDDSLAPIDEKKVPMLKDTKNKIENEHVIWEKVYESKTK
As usually defined, the Kd is a measure of binding affinity in units of concentration. As to B1, the values for the Kd in assay [1] and in assay [3] were 2.8 nM and 5.7 nM, respectively. In assay [2], this molecule displayed a fold reduction of affinity against wild-type Prp24 (U6•Prp24 complex) of 2 fold. Also, the rate of in vitro annealing of U4 and U6 with Prp24-8Asub in place of wild-type Prp24 (50 nM Prp24/50 nM Lsm2–8) in assay [4] was determined as 2 fold slower.
